Experimental data reported in patent US20210230265A1 (Sanofi, published 2021).

Molecular target: T1, interleukin-33 (IL-33) (human, UniProt O95760 95-270, limits assumed)
T1 construct: This is endogenous circulating IL-33 in treated patients, not a recombinant construct; also called total IL-33
T1 sequence (looked up): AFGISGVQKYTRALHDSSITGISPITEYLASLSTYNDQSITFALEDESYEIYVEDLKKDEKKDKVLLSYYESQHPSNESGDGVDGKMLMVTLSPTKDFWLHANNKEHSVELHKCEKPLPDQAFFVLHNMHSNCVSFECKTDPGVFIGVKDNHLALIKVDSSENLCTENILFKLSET
Assay: Target mediated drug disposition (TMDD) model of total IL-33 vs. time in serum, driven by PopPK-predicted PK, all studies; an in vivo model estimate, not a direct binding assay; in vivo TMDD model estimate from clinical total IL-33 data, not a direct binding assay
Description: Total TL-33 vs. time was modelled using a target mediated drug disposition (TMDD) approach. All studies were included in the analysis. PopPK predicted PK for each individual was used to drive the total IL-33 dynamics. […] (This was based on the baseline IL-33 assumption of ½ lower limit of quantification (LLOQ).) Based on the computed threshold, 300 mg Q2W, 300 mg Q4W, and 300 mg Q8W may be able to meet the threshold target for achieving 90% target engagement.

B1: SAR440340 (antibody, human IgG4 S228P, kappa, V domains shown)
VH: VQLVESGGNLEQPGGSLRLSCTASGFTFSRSAMNWVRRAPGKGLEWVSGISGSGGRTYYADSVKGRFTISRDNSKNTLYLQMNSLSAEDTAAYYCAKDSYTTSWYGGMDVWGHGTTVTVSS
VL: IQMTQSPSSVSASVGDRVTITCRASQGIFSWLAWYQQKPGKAPKLLIYAASSLQSGVPSRFSGSGSGTDFTLTISSLQPEDFAIYYCQQANSVPITFGQGTRLEIKR
notes: Human anti-IL-33 antibody; also called REGN3500; itepekimab
Q: How did the Kd turn out when B1 was run?
A: 7.01 nM
